The record followed here is the DeepSol protein solubility set.

This data set in a line: soluble on expression in E. coli; label from the status in PepcDB or PDB records.
As to “MITFIGHVSKDVNVVDGKREIAYGGGVVMGAITSSLLGVKTKVITKCTREDVSKFSFLRDNGVEVVFLKSPRTTSIENRYGSDPDTRESFLISAADPFTESDLAFIEGEAVHINPLWYGEFPEDLIPVLRRKVMFLSADAQGFVRVPENEKLVYRDWEMKEKYLKYLDLFKVDSREAETLTGTNDLRESCRIIRSFGAKIILATHASGVIVFDGNFYEASFRSWSLEGRTGRGDTCTAAFLVGFVFKKMSIEKATKFAAAVTSVKMRHPGPLRREDLEAISGDQYF”, the “soluble on expression in E. coli” value is reported as “not soluble”.

Consider “MIQAILVFNNHGKPRLVRFYQRFPEEIQQQIVRETFHLVLKRDDNICNFLEGGSLIGGSDYKLIYRHYATLYFVFCVDSSESELGILDLIQVFVETLDKCFENVCELDLIFHMDKVHYILQEVVMGGMVLETNMNEIVAQIEAQNRLEKSEGGLSAAPARAVSAVKNINLPEIPRNINIGDLNIKVPNLSQFV”, for which the “soluble on expression in E. coli” value is on record as “not soluble”.

As to “MGSDKIHHHHHHMEKGSIKILGEGFISSGEYENIKIVGSSKSKGNVKSNEVKVLGDAKFEGDINIKNFVVNGKTIIRGNLKAERVRVNGQLNIEGDAEIDDLVITAQQKVDGKLKCNNVTIRGQLSVNENMYAQDIKIYGEMRNKSNIECEDIKVYGVIKCDGLLNGENIYVYSGGGSYCKEIGATNIKIGRSKDAFSLIKIINIFSGKFKCNLIEGDTIELEDASIKDIRGKSISLVDNCDVGNIEYSDNLSVSDNSTVKNSIKVG”, the “soluble on expression in E. coli” value is reported as “not soluble”.

In the case of “MKKLFALLFISMISGMIMAQIPEVSGTIVFKKDGQPVVGALVSVLGTDISTITDVDGRFTLKEIPEKAQRIRVKYIGMQPKDVKIRPIMNVTLDLEKKLAFFIQAGVGVSGYNLENNNEDIYGGNNHLYIQGGVGLNYNFSTYFSLQPSVNVVAKGCKNMGRRGSDGQGEITVDPVYLEIPVLIAARFIISDFGRLIFNAGPYAAIGIAGKGKYTDEWEGTSMKFDLFSGDEAVLKRFDAGVQAGFAYEIKHIGFSYTFGYGLLKPFKEWNKEWGATPHNISHNFGLKYIF”, the “soluble on expression in E. coli” value is “not soluble”.

As to “MGKEITENIIDVEFKCNHFKMNGYIGNNNIYRSNKNLQHIYINKRFVKSKIIIDAITESYKSIIPIGKHAVCFLNIEVDPSCIDVNIHPNKLEIKFEKEQEVYIELRDFLKVKLIHSNLIGLEHHHHHH”, the “soluble on expression in E. coli” value is on record as “not soluble”.

Regarding “MGSDKIHHHHHHMKLTIAGDSHGKYMVAILEGLPSGIRVDEELIRRDLFRRRNCYGRGKRMKMEEDAFEIVSGLWKGITTGAPVTILIPNRAGNPVKDVRSVPRPGHIDYAAWVKYKLPDLNIYVERSSARWTVALTAAGSLLKSLLKEFGIEVLGFVTRLGNVEARDIPGDFEELKRRRDESVVFCPDPEATKEMVAEIDRAKEEGNTLGGKVKVIARGVPAGIGSYSDLFKKLDSKIGSLFFAIPAVKGVVIGSEEMWYGFDYLDEFELEDGKIKRKTNNLGGIEGGITNGEDVWVNVSVKPIPTTGKPLKSVDLRTMEPAKTPYVRSDVTAVPPASVVCEAALAVVISDALLEHLGDGNIDDLKRRFENENLPRWNDGFWKEHYR”, the “soluble on expression in E. coli” value is “not soluble”.

Consider “VNVLKKDITASPVLSETAPTSAPSEAAAANEIKQPIPSQKAEMSELKKLTDIISPELIEPNLVGETSDDIIDELIQKLSRRGALLSESGFKQAILNREQQGTTAIGMNIAIPHGKSEAVREPSVAFGIKRSGVDWE”, for which the “soluble on expression in E. coli” value was “not soluble”.

Take “MGARCDVAVIGAGPAGCAAAIALKRLGVASVLLLEAGDGARPRFGESLPPDIRLILAQLGLAEAFAALGFDPCVGAASSWGEDGLGYNDFLFNPHGLGWHIDRARFDAFLRDAAVAAGAELRFDTVFDSVVMTGDAARLRVRGERGDETITAGFVLDATGRAARVARALGAERIESDRLVCAAALIRIDPDGLLGQRSLLEAVDYGWWYAARLSPDEAIVVVSTDADLLRARRLHRSDAWYGHLAATRHVAAALGTAAPPSQLMVRQARSSRLSRAADQRWRAIGDAASVYDPIMAQGVTKAMIEGLAAARDIVRHMPDAEEGLDARFADYLSLRDYFYGQEGRWPDAPFWTRRRRPQPAVRTLWEVSALEHHHHHH”: the “soluble on expression in E. coli” value was “not soluble”.

For “MSLKLVGIIGSIADESYNRKLMLYIASHFKETIDIEILDIRDVPMFRVGMEMGPAVEYLNKKISAADGVIIATPEHNHTTTAALKSVIEWLSSSVHPFADKPVLLVGASYFEQGSGRAQLDLRQILESPGVNALVMPKDEFLLGNVKSAFDENGNLKEARTVGFLESVMGNFLKWIKVLKAMKKNNDVKGDWESEDLTASQEIDTTVKGVDMKAEDWVEQAAAKTNAVEGDTYVKLDRGLLTVNQLNWFLNTMPVELTFADDNNQFIYYNRMDENPKDMLAPRQPKQVGDPLESVHPERALKGVKHVVHTLRTGETDLVSMPVPFINKVNEKHVMHYYKAMHDEDGRYRGINEWVVDIWPVVESYLKMTGQKLVADENAKVDEGHHHHHH”, the “soluble on expression in E. coli” value was “soluble”.

As to “MAHHHHHHMDYEEPGQATRELTTFVQGLLQNMQTRFQEMSDTIITRIDEMGTRIDDLEKNIAELMQQAGPDEEAAQTASAPKDKKKSKGK”, the “soluble on expression in E. coli” value is given as “soluble”.

For “MGSDKIHHHHHHMMRALYTAATGMRAEQTNVDTIANNLSNVNTTGFKGQRTEFKSLLYQTIQTRSTSGNGDAKPVGAQVGLGTRVAATTSTYTQGPLNSTERPTDFALEGDGFFAVRGTDNQTYYTRNGAFTWSQYGNGQTILTDSQGNPVMDTNGNIIAVPAGVSAEKMSFGEDGAVGYMTAQGNYINLNQRIAVYQFNNPSGLEKQSGSLLAATANSGNPMLEIANPALKSSKVVTGYLEGSNVQVADEMVNLIVAQRAYELNSKAITTADSMLETANNLRR”, the “soluble on expression in E. coli” value is recorded as “not soluble”.

Consider “MGSDKIHHHHHHLAGERENWFVSIPPRRGSVLDVRGRKIVYDSPEYVAYLDVDFFKRQNGDIKALEKTLQNCGITKSAEEVMEYKFFKLTEGEDKVDVLKKIESELLPFVNIELVYTRKKIQDYATGILLGTVIDGTGKGGIEGFFDDQLQGKRKGFLELRYRGARLSPTLVNYSPPENGKDVWLSLDLDLQRRVYDIISKAVEGNSAEAGHVIVMESKTGRILSMVTTRNWNDLIGGYIEPGSTIKPLVYAIALETHSASPDFTVECEGSIKPVEQLPVIIRDIEKHGLVDFSAGIVKSCNVMSVKVGELITEKTGVEGFYEWLRKVGFGEKTGIEMEGEIAGVLREPKKWSLIDPAEISIGQGIGVTPVQLIASLNIFANDGYWVKPTILKDSPVKKRRVFSKETTDVIRQAMVRVVEEGTGKLAQVKGIAIAGKTGTAQKAVGGEYRNLYHSLFVGFFPAEDPKYTILVHLDSPSGAFYGGEVAAPVFREIVEILTEKEDGRIRIVKGLMPDLRGLPVRDALLVLESLGVKDVEIKGKGWKVSEQTPPPNHPLEGPVILFLSDQK”, for which the “soluble on expression in E. coli” value is “not soluble”.

On to “MKKGVLFDLDGTILDFEKSEDQALKRTFLKYGIPLTEDQVFLYREINRKWWKLLAEGKVSKDVVVVARFEEFLKTLNIPLDPRKVAKDYLEFLSEEAHFLPGAEEFLERLKKKDLRMAVVTNGVRFVQEKRSRKLKLDRFFEFVLTSEEAGVEKPDPRIFWLALERMKLKKEEVLYVGDDFSSDLEGARNAGIDFVLFSSDGDSSGDFPVARNFKELEKIVEEFL”, for which the “soluble on expression in E. coli” value is given as “soluble”.

Consider “MGHHHHHHSHMARLILERFLQEHEETPPSKSIINSMLRDPSQIPDGVLANQVYQCIVNDCCYGPLVDCIKHAIGHEHEVLLRDLLLEKNLSFLDEDQLRAKGYDKTPDFILQVPVAVEGHIIHWIESKASFGDECSHHAYLHDQFWSYWNRFGPGLVIYWYGFIQELDCNRERGILLKACFPTNIVTLCHSIA”, for which the “soluble on expression in E. coli” value was “not soluble”.

Consider “MSEQITFATSDFASNPEPRCPCILLLDVSGSMSGRPINELNTGLVTFRDELLADSLALKRVELGIVTFGPVHVEQPFTSAANFFPPILFAQGDTPMGAAITKALDMVEERKREYRANGISYYRPWIFLITDGAPIDEWQAAANKVFRGEEDKRFAFFSIGVQGADMKTLAQISVRQPLPLQGLQFRELFSWLSSSLRSVSRSTPGTEVVLEAPKGWTSV”, for which the “soluble on expression in E. coli” value is “not soluble”.

With “MGSDKIHHHHHHMKAKAAFFDIDGTLYREGLISEVFKKLIKYEIIDEEKWYKEVRPEFEKWDNRKGDYDDYLLKMTEIYVDALNGLSKSQVEFIASQVVNQKGERVYTYTRDRIKWHKERGHKIITISGSPIELVRNMAEKYGFDDYRGAEYLLDENDVYTGEVIPMWDSKSKERAVHELEAKYNIDLGESYAYGDTSGDLTMLKMVGNPVCINPTKELVKEILSAAAVKNKIRIIVERKDMIYKISSRCLECDCEFVL”, the “soluble on expression in E. coli” value is reported as “not soluble”.

With “MGSDKIHHHHHHMDKALLHFDNSYARDLEGFYAPWQAATAPAPRLLLLNQALAEELGLDSATLDDELGAAIFSGNQVPEGALPLAQAYAGHQFGHFSPQLGDGRALLLGELIDRHGRRRDMQLKGSGRTPFSRGGDGKAALGPVLREYVIGEAMHALGIPTTRALAAVTTGETVRRETWLPGAILTRIAASHIRVGTFQFFAARNENVRVKQLADYTIARHYPPLKGADNPYLELFAAVSAAQAALIARWMLVGFIHGVMNTDNMSIAGETIDYGPCAFMDNYDPETVFSSIDAHGRYAYAHQPLIAQWNLTRFAETLIDLVHPDPDEAARLLTEQLNEFPKLYTRHWLDGMRAKMGLATAEDGDLALAQALLSAMEGQNADFTQVFRGLSAAVRGDPAQVRAHFVNQAPFDLWLAQWQARLAHESATAEARAEAMDQVNPLYIPRNHKVEEALAAATLNQDLTPFKALLAVLERPFAERPGLESYTQPAPEDFGPFKTFCGT”, the “soluble on expression in E. coli” value is recorded as “not soluble”.

With “MPEEIATLAGGCFWCTEAAFKLLRGVLEVVPGYAGGHVPHPTYEEVCTGTTGHREAVQVRFDPGVLPYADLLRYFFAVHDPTSEDRQGPDVGPQYSPAIFYHSEEQKRVAEAVMRELAPLYPKPIATKLLPFTTFYPAEAYHRDYFARHPEAPYCRFVIAPKLEKARKAFKSLLRP”, the “soluble on expression in E. coli” value was “soluble”.

For “PADFNGTWEMLSNDNFEDVMKALDIDFATRKIAVHLKQTKVIVQNGDKFETKTLSTFRNYEVNFVIGEEFDEQTKGLDNRTVKTLVKWDGDKLVCVQKGEKENRGWKQWIEGDLLHLEIHCQDKVCHQVFKKKN”, the “soluble on expression in E. coli” value is “soluble”.

“GPGSMSKSRRDVNKVQIGYHRAENTETVSSPHTYAYSSGKSAPSTTKPDRPTVSNIRIASAVAGLPPSRFAANASVKREKNDEESESPTAAASSVSSSLLHGAASEARTTVDGFPWSTRRVERMSFEMQNVSPPIANLLRRVLTTEVPTLAFDRVLIEENDSPVLDELLSHRLGLVPVAGPVMKMHYITESNQASFSNLDPSRVLLFELDATGAKDAAVTPVYSGQLQWVPLPGQDKTAGAVAVACQAGREECAGAAGATDHSADEDDDAVFLVHPDILLTKLGPGQRIKLKAIAVKGFGAVHAKWSPVSACYYEMKTSVELCERLTGSAAEALIKSCPAGVFGYEGGQRGAAATVVAPEKCTLCRECLRSEDKGAEAAANKGDRVRVQKDKTHVLFHIESVGQLHPAQILRFGLRLFAERCRALAEMVQSTEVHVVDASAKSLEL”: the “soluble on expression in E. coli” value is given as “not soluble”.

Regarding “MAHHHHHHMVTGDMSTTVTGLDPHKMARRASRFVSSVKASTGTASSTGRTEMERYFENFASMDSAEGLETIGPKGIQHLCEDLAIKRDSFEMYTLIWKLGITRGGCIPRSDWLNMVYNYNIEVPVELKRRLREWVKDARGPSFVEFYSELYDYIRGDSARMMLPETAARAWDVLFRGDQQVAQWIRWYTGFYDCEVTRDIWRHVALFFNTGENATPYRKEDAWPTAFDLFAEWRETCETP”, the “soluble on expression in E. coli” value is recorded as “not soluble”.
